{"source": "paper PMC11033527", "about": "“Inhibition of SARS-CoV-2 nucleocapsid protein–RNA interaction by guanosine oligomeric RNA”", "key": {"[1]": {"target": "T1, SARS-CoV-2 nucleocapsid N-terminal RNA-binding domain (NTD) (SARS-CoV-2, UniProt P0DTC9 46-174)", "experiment": "EMSA competition; vs 32P-probe RNA; n=4", "conditions": "protein: recombinant; tags: His-tag (pET-15b)"}, "[2]": {"target": "T1, SARS-CoV-2 nucleocapsid N-terminal …", "experiment": "EMSA competition; vs 32P-probe RNA; n=3", "conditions": "protein: recombinant; tags: His-tag (pET-15b)"}, "[3]": {"target": "T1, SARS-CoV-2 nucleocapsid N-terminal …", "experiment": "EMSA competition; vs 32P-probe RNA; n=7", "conditions": "protein: recombinant; tags: His-tag (pET-15b)"}, "[4]": {"target": "T1, SARS-CoV-2 nucleocapsid N-terminal …", "experiment": "EMSA competition; vs 32P-probe RNA; n=6", "conditions": "protein: recombinant; tags: His-tag (pET-15b)"}, "[5]": {"target": "SARS-CoV-2 nucleocapsid protein full length (NP) (SARS-CoV-2, UniProt P0DTC9 1-419)"}, "[6]": {"target": "T1, SARS-CoV-2 nucleocapsid N-terminal …", "experiment": "EMSA; 800 ng NTD, 5 ng RNA", "conditions": "protein: recombinant; tags: His-tag (pET-15b); label: 32P-CTP internal"}}}
{"binder": "GGGGGG (ssRNA)", "note": "[G6]", "values": [{"measurement": "IC50", "setting": "[1]", "result": "0.62 ± 0.07", "unit": "µM"}]}
{"binder": "AAAAAA (ssRNA)", "note": "[A6]", "values": [{"measurement": "IC50", "setting": "[2]", "result": "22.9 ± 16.4", "unit": "µM"}]}
{"binder": "CCGGCG (ssRNA)", "note": "[In-1]", "values": [{"measurement": "IC50", "setting": "[3]", "result": "34.3 ± 27.8", "unit": "µM"}]}
{"binder": "CCAGCG (ssRNA)", "note": "[mIn-1 (mIn-1-1)]", "values": [{"measurement": "IC50", "setting": "[4]", "result": "3.48 ± 1.46", "unit": "µM"}]}
{"binder": "CGAGGCCACGCGGAGUACGAUCGAGUGUACAG (ssRNA)", "note": "[FITC-probe RNA (32-base)]", "values": [{"measurement": "binding result", "setting": "[5]", "result": "binds"}]}
{"binder": "GGGGGGGGGGGG (ssRNA)", "note": "[G12]", "values": [{"measurement": "binding result", "setting": "[5]", "result": "binds"}]}
{"binder": "GGGCGAGGCCACGCGGAGUACGAUCGAGUGUACAG (ssRNA)", "note": "[32P-probe RNA (T7 transcript)]", "values": [{"measurement": "binding result", "setting": "[6]", "result": "binds"}]}
